Patent US10865390B2, “Alcohol dehydrogenase mutant and application thereof in synthesis of diaryl chiral alcohols” (Jiangnan University, priority 2018, dated 2020)
Numbering of substitutions follows the chain as printed. In names and notes the source's numbering stands. Several values for one entry are separate records, joined by “and”; a condition that tells them apart may be missing. Identical values can stand only once.

B1: M6: alcohol dehydrogenase mutant E214G, S237C, Q136N, S196G, F161V of SEQ ID No. 2 (protein)
chain: MSVLISGASGYIAKHIVRVLLEQNYKVIGTVRSQDKADKLLKQYNNPNLSYEIVPEIANLDAFDDIFKKHGKEIKYVIHAASPVNFGAKDLEKDLVIPAINGTKNMFEAIKKYAPDTVERVVMTASYASIMTPHRNNDPTLTLDEETWNPVTEENAYENVVTAYCASKTFAEKEAWKFVKENSDAVKFKLTTIHPGFVFGPQNFDEDVTKKLNGTCEIINGLLHAPFDTKVEKTHFCQFIDVRDVAKTHVLGFQKDELINQRLLLCNGAFSQQDIVNVFNEDFPELKGQFPPEDKDTDLNKGVTGCKIDNEKTKKLLAFEFTPFHKTIHDTVYQILHKEGRV
modifications: Protein translated from synthetic DNA
B2: M2: alcohol dehydrogenase mutant: valine for glutamic acid at position 214 (E214V) of SEQ ID No. 2 (protein)
chain: B1 chain with N136Q, V161F, G196S, G214V, C237S
modifications: Protein translated from synthetic DNA
B3: M1: alcohol dehydrogenase mutant: glycine for glutamic acid at position 214 (E214G) of SEQ ID No. 2 (protein)
chain: B1 chain with N136Q, V161F, G196S, C237S
modifications: Protein translated from synthetic DNA
B4: M3: alcohol dehydrogenase mutant E214G, S237C of SEQ ID No. 2 (protein)
chain: B1 chain with N136Q, V161F, G196S
modifications: Protein translated from synthetic DNA
B5: M4: alcohol dehydrogenase mutant E214G, S237C, Q136N of SEQ ID No. 2 (protein)
chain: B1 chain with V161F, G196S
modifications: Protein translated from synthetic DNA
B6: M5: alcohol dehydrogenase mutant E214G, S237C, Q136N, S196G of SEQ ID No. 2 (protein)
chain: B1 chain with V161F
modifications: Protein translated from synthetic DNA
B7: M7: alcohol dehydrogenase mutant E214V, T215S of SEQ ID No. 2 (protein)
chain: B1 chain with N136Q, V161F, G196S, G214V, T215S, C237S
modifications: Protein translated from synthetic DNA

assay: Stereoselectivity analysis of CPMK reduction (chiral liquid chromatography, Table 1); type: biochemical; conditions: product CPMA from CPMK
Description: (§1) In an embodiment of the present disclosure, the (R)- and (S)-CPMA is chromatographed by taking 100 μL reaction solution, adding 500 μL ethyl acetate, shaking for 1-2 min, centrifuging at 12,000 rpm for 2-5 min, placing a supernatant into a centrifuge tube, and after an organic phase is naturally volatilized completely, adding 500 μL chromatographic pure ethanol for chiral liquid chromatography of a conversion rate and an ee value. The specific chromatographic conditions are as follows: Daicel Chiralcel OB-H (5 μm, 250 mm×4.6 mm) liquid chromatography column, mobile phases are n-hexane: ethanol: ethanolamine (90:10:0.01, v/v/v), the flow rate is 1 mL/min, the column temperature is 30° C., the UV detection wavelength is 254 nm, the injection volume is 10 μL, and the retention time for (R)-CPMA and that for (S)-CPMA are 11.14 min and 12.34 min respectively.
Method for determining optical purity ee:
As: molar concentration of (S)-CPMA obtained by liquid chromatography; and AR: molar concentration of (R)-CPMA obtained by liquid chromatography.
The activity of KpADH at different substrate concentrations and coenzyme concentrations was determined, and a double reciprocal curve was made based on the reciprocal of activity and substrate concentration to calculate kinetic parameters.

Molecule	ee
B1	97.8% and 99.8%
B2	92.3%
B3	3.29%
B4	51.8%
B5	88.0%
B6	93.5%

assay: Substrate specificity: reduction of prochiral carbonyl compound (Table 2); type: biochemical; conditions: substrate drawing 1 (CPMK)
From the text: The reduction on prochiral carbonyl compounds by the alcohol dehydrogenase mutants obtained in Example 2 was studied, and the studied prochiral carbonyl compounds include (4-chlorophenyl)-(pyridin-2-yl)-methanone (CPMK), phenyl-(pyridin-2-yl)-methanone, (4-chlorophenyl)-(phenyl)-methanone, (4-bromophenyl)-(phenyl)-methanone, (4-fluorophenyl)-(pyridin-2-yl)-methanone, (4-methoxyphenyl)-(phenyl)-methanone, acetophenone, 4-chloroacetophenone and 2-(4-chlorophenyl)acetyl chloride.

Molecule	ee value of product
B2	92.3%
B3	24.2%
B4	65.4%
B5	80.6%
B6	87.7%

same assay, conditions: substrate drawing 2

Molecule	ee value of product
B1	6.81%
B2	30.6%
B3	41.0%
B4	36.5%
B5	20.7%
B6	15.5%
B7	11.9%

same assay, conditions: substrate drawing 3

Molecule	ee value of product
B1	91.7%
B2	87.9%
B3	63.2%
B4	33.2%
B5	38.6%
B6	62.0%
B7	99.4%

same assay, conditions: substrate drawing 4

Molecule	ee value of product
B2	95.5%
B3	49.3%
B4	63.3%
B5	66.5%
B6	70.9%

same assay, conditions: substrate drawing 5

Molecule	ee value of product
B1	64.2%
B2	0.56%
B3	7.51%
B4	45.6%
B5	49.1%
B6	59.5%
B7	9.22%

same assay, conditions: substrate drawing 6

Molecule	ee value of product
B2	23.2%
B3	42.7%
B4	80.6%
B5	82.6%
B6	81.7%
B7	45.7%

same assay, conditions: substrate drawing 7

Molecule	ee value of product
B1	95.3%
B2	45.3%
B3	68.5%
B4	95.3%
B5	91.5%
B6	95.6%
B7	51.3%

same assay, conditions: substrate drawing 8

Molecule	ee value of product
B1	82.1%
B2	94.9%
B3	86.3%
B4	88.9%
B5	57.7%
B6	49.1%
B7	95.1%

same assay, conditions: substrate drawing 9

Molecule	ee value of product
B2	91.2%
B3	94.5%
B4	99.8%
B5	99.3%
B6	99.9%
B7	77.5%

assay: 20 mL biocatalytic system: asymmetric reduction of CPMK; type: biochemical; conditions: 20 mL biocatalytic system, enzyme 10 g/L, 30° C., pH 7.5
Description: as §1
A 20 mL biocatalytic system was established: 100 mM potassium phosphate buffer (pH 7.0), and the alcohol dehydrogenase mutants M6 and M7 obtained in Example 2 as well as wild KpADH 10 g/L, CPMK 100 mM, 200 mM and 500 mM were added (substrate added in batches). […]

Molecule	ee value of final reduction product
B1	99.5%
B7	99.7%

same assay, conditions: CPMK 100 mM, reaction time 1 h

Molecule	Conversion rate
B1	24.6%
B7	34.0%

same assay, conditions: CPMK 100 mM, reaction time 2 h

Molecule	Conversion rate
B1	54.6%
B7	40.8%

same assay, conditions: CPMK 100 mM, reaction time 3 h

Molecule	Conversion rate
B1	69.4%
B7	41.5%

same assay, conditions: CPMK 100 mM, reaction time 4 h

Molecule	Conversion rate
B1	80.2%
B7	46.5%

same assay, conditions: CPMK 100 mM, reaction time 6 h

Molecule	Conversion rate
B1	95.2%
B7	58.7%

same assay, conditions: CPMK 100 mM, reaction time 8 h

Molecule	Conversion rate
B1	97.2%
B7	69.0%

same assay, conditions: CPMK 100 mM, reaction time 12 h

Molecule	Conversion rate
B1	98.2%
B7	99.7%

same assay, conditions: CPMK 100 mM, reaction time 24 h

Molecule	Conversion rate
B1	99.6%
B7	99.7%

same assay, conditions: CPMK 200 mM, reaction time 1 h

Molecule	Conversion rate
B1	19.1%
B7	20.9%

same assay, conditions: CPMK 200 mM, reaction time 2 h

Molecule	Conversion rate
B1	36.4%
B7	33.1%

same assay, conditions: CPMK 200 mM, reaction time 3 h

Molecule	Conversion rate
B1	52.8%
B7	48.1%

same assay, conditions: CPMK 200 mM, reaction time 4 h

Molecule	Conversion rate
B1	70.6%
B7	55.2%

same assay, conditions: CPMK 200 mM, reaction time 6 h

Molecule	Conversion rate
B1	89.7%
B7	77.4%

same assay, conditions: CPMK 200 mM, reaction time 8 h

Molecule	Conversion rate
B1	92.2%
B7	86.3%

same assay, conditions: CPMK 200 mM, reaction time 12 h

Molecule	Conversion rate
B1	95.4%
B7	92.2%

same assay, conditions: CPMK 200 mM, reaction time 24 h

Molecule	Conversion rate
B1	99.2%
B7	99.7%

same assay, conditions: CPMK 500 mM, reaction time 1 h

Molecule	Conversion rate
B1	12.8%
B7	10.8%

same assay, conditions: CPMK 500 mM, reaction time 2 h

Molecule	Conversion rate
B1	22.1%
B7	21.1%

same assay, conditions: CPMK 500 mM, reaction time 3 h

Molecule	Conversion rate
B1	30.6%
B7	38.7%

same assay, conditions: CPMK 500 mM, reaction time 4 h

Molecule	Conversion rate
B1	65.3%
B7	43.2%

same assay, conditions: CPMK 500 mM, reaction time 6 h

Molecule	Conversion rate
B1	77.9%
B7	62.1%

same assay, conditions: CPMK 500 mM, reaction time 8 h

Molecule	Conversion rate
B1	87.6%
B7	70.7%

same assay, conditions: CPMK 500 mM, reaction time 12 h

Molecule	Conversion rate
B1	90.2%
B7	89.9%

same assay, conditions: CPMK 500 mM, reaction time 24 h

Molecule	Conversion rate
B1	99.5%
B7	99.4%

same assay, conditions: CPMK concentration 200 mM

Molecule	time required to achieve a conversion rate close to 99.9%
B1	24 h
B7	24 h
